Experimental data taken from patent CN114456266A (dated 2022).
Values belong to the binder of their own block, whether it stands above or below them. Ends that are not written are not given here.

Tests used:
[1] = molecular target: T1, GST fusion with RAD21 cleavage site 2 peptide IEEPSR at the COOH terminus (also: fused to GST at N-terminal side); assay: immunoblot, hybridoma ascites on E. coli extracts of GST-peptide fusions
T1 construct: E. coli extract of GST fused to the peptide near the RAD21 cleavage site; also called 肽段IEEPSR(切割位点2); not shown: GST (glutathione S-transferase) fusion partner, expressed in E. coli
T1 chain: {GST}-IEEPSR

[2] = molecular target: T2, RAD21*M (predicted separase cleavage fragment of RAD21, recombinant, expressed in HEK-293 cells) (UniProt O60216 173-450); assay: immunoprecipitation by the standard ChIP procedure of recombinant protein from HEK-293 extracts
T2 construct: domain: RAD21*M; Transiently expressed from a plasmid in HEK-293
T2 sequence (looked up): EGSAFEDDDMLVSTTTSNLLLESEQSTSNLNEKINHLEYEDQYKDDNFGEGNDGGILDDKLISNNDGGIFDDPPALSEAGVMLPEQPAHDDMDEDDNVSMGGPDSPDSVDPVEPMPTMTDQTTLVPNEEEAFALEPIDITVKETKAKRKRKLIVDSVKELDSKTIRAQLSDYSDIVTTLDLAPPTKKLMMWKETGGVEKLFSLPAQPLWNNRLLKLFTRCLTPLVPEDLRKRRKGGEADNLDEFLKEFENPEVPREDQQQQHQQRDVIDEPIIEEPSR

[3] = molecular target: T3, GST fusion with REC8 cleavage site 2 peptide PSEIEVPR at the COOH terminus (also: fused to GST at N-terminal side); assay: immunoblot, hybridoma ascites on E. coli extracts of GST-peptide fusions
T3 construct: not shown: GST (glutathione S-transferase) fusion partner, expressed in E. coli
T3 chain: {GST}-PSEIEVPR

binding result [1]: binds
binding result [2]: binds
B1: 抗RAD21新表位单克隆抗体IB22-S (antibody, mouse IgG2a, kappa, V domains shown)
VH: EVQLVESGGGLVQPRGSLKLSCAASGFTFNNYAMNWVRQAPGKGLEWVARIRSKSKNYAIYYADSVKDRFTISRDDSQTMLYLQMNNLKTEDTGMYYCVAPSYSGSSPFAYWGQGTLVTVSA
VL: DVLMTQTPLSLPVSLGDQASISCRSSQSFVHSNGNTYLEWYLQKPGQSPKLLIYKVSNRFSGVPDRFSGSGSGTDFTLKISRVEAEDLGVYYCFQGSHVPFTFGSGTKLEIKR
notes: Mouse hybridoma antibody (ascites used in blots); also called 1B22s

binding result [3]: binds
B2: 抗REC8新表位单克隆抗体IE22-D (antibody, V domains shown)
VH: EVQLQQSGAEVVKPGASVKLSCTASGFNIKDTYMHWVNQRPEQGLEWIGRNDPANGNSKYDPKFQGKATITADTSSNTAYLQLSSLTSEDTAVYYCARGVRQGAWFAYWGQGTLVTVSA
VL: DVLMTQTPLSLPVSLGDQASISCRSSQSIVHSNGNTYLEWYLQKPGQSPKLLIYKVSNRFSGVPDRFSGSGSGTDFTLKISRVEAEDLGVYYCFQGSHVFTFGAGTKLELKR
notes: Mouse hybridoma antibody (ascites used in blots); also called 1E22d
